Experimental findings from patent US10350168B2, “Dermal delivery compositions comprising active agent-calcium phosphate particle complexes and methods of using the same” (Laboratory Skin Care, Inc., priority 2009, dated 2019) are described below.

This data set can be described thus: Lactoferrin binding to calcium phosphate particles (UV 280 nm). Particulars: binding concentration of 2.99 mg/ml. Type of data set: physicochemical. As for the experimental part: • Calcium phosphate particles • Lactoferrin from human milk, Sigma Aldrich, Catalog No. 0520-100MG Methods: • i. Lactoferrin solution was prepared in water at 4.98 mg/ml. • ii. 0.3 g of Calcium phosphate particles was suspended in 1.2 ml of water and mixed for 5 min. • iii. 1.8 ml of Lactoferrin solution at 4.98 mg/ml was added to achieve the final concentrations at 3.0 mg/ml, and the final volume was 3 ml. • iv. The suspension was mixed for 30 min, and centrifuged at 5000×g for 10 min in a bench top centrifuge. • v. The absorbance of supernatant was measured at 280 nm (the detection wavelength for Lactoferrin) by UV spectrophotometer. • vi. […] Lactoferrin bound was calculated by subtracting the amount of the Lactoferrin detected in the supernatant from the total initial amount in the binding suspension.

B1: Lactoferrin: Lactoferrin from human milk, Sigma Aldrich (protein, UniProt P02788 20-710, looked up)
Lactotransferrin: GRRRSVQWCAVSQPEATKCFQWQRNMRKVRGPPVSCIKRDSPIQCIQAIAENRADAVTLDGGFIYEAGLAPYKLRPVAAEVYGTERQPRTHYYAVAVVKKGGSFQLNELQGLKSCHTGLRRTAGWNVPIGTLRPFLNWTGPPEPIEAAVARFFSASCVPGADKGQFPNLCRLCAGTGENKCAFSSQEPYFSYSGAFKCLRDGAGDVAFIRESTVFEDLSDEAERDEYELLCPDNTRKPVDKFKDCHLARVPSHAVVARSVNGKEDAIWNLLRQAQEKFGKDKSPKFQLFGSPSGQKDLLFKDSAIGFSRVPPRIDSGLYLGSGYFTAIQNLRKSEEEVAARRARVVWCAVGEQELRKCNQWSGLSEGSVTCSSASTTEDCIALVLKGEADAMSLDGGYVYTAGKCGLVPVLAENYKSQQSSDPDPNCVDRPVEGYLAVAVVRRSDTSLTWNSVKGKKSCHTAVDRTAGWNIPMGLLFNQTGSCKFDEYFSQSCAPGSDPRSNLCALCIGDEQGENKCVPNSNERYYGYTGAFRCLAENAGDVAFVKDVTVLQNTDGNNNEAWAKDLKLADFALLCLDGKRKPVTEARSCHLAMAPNHAVVSRMDKVERLKQVLLHQQAKFGRNGSDCPDKFCLFQSETKNLLFNDNTECLARLHGKTTYEKYLGPQYVAGITNLKKCSTSPLLEACEFLRK
On to B1, for which the “Lactoferrin bound to calcium phosphate particles” value is reported as 29.63 mg/g.
